{"source": "paper PMC6629437", "about": "(Cell, 2019)", "binders": {"B1": {"name": "rFluA-20 IgG (recombinant FluA-20 IgG) (antibody, V domains shown)", "VH": "QVQLEESGPGLVKPSETLSLTCSVSGVSVTSDIYYWTWIRQPPGKGLEWIGYIFYNGDTNYNPSLKSRVTMSIDTSKNEFSLRLTSVTAADTAVYFCARGTEDLGYCSSGSCPNHWGQGTLVTVSS", "VL": "DIVMTQSPSSLSASIGDRVTITCRPSQNIRSFLNWFQHKPGKAPKLLIYAASNLQSGVPSRFSGSGSGTEFTLTIRSLQPEDFATYYCQQSYNTPPTFGQGTKVEIK"}, "B2": {"name": "rFluA-20 IgG D98A (H) (antibody, V domains shown)", "VH": "B1 VH with D103A", "VL": "B1 VL"}, "B3": {"name": "rFluA-20 IgG Y49A (L) (antibody, V domains shown)", "VH": "B1 VH", "VL": "B1 VL with Y49A"}}, "key": {"[1]": {"target": "H7 HA of A/Netherlands/219/2003, soluble trimer (Influenza A virus …, UniProt Q6VMK1, strain)", "test": "ELISA"}, "[2]": {"target": "H5 HA of A/Indonesia/5/2005 (Influenza A virus A/Indonesia/5/2005 …, UniProt A5A5L7, strain)", "test": "ELISA"}}, "note": "Where a chain is given by its changes, count along the chain named. Names and notes keep the numbering of the source."}
{"binder": "B1", "values": [{"measurement": "binding result", "setting": "[1]", "result": "binds"}]}
{"binder": "B2", "values": [{"measurement": "binding result", "setting": "[2]", "result": "no binding (tested: 10 μg/mL)"}]}
{"binder": "B3", "values": [{"measurement": "binding result", "setting": "[2]", "result": "no binding (tested: 10 μg/mL)"}]}
